Reference: US20030158389A1
Like-named read-outs stand apart in the source and are kept apart here. One block for each substance: values may come before it.

Columns and labels:
[1] = target: human C1q (Quidel, San Diego, Calif.) (human) (UniProt P02745); assay: C1q binding ELISA, antibody coated on plate, 2 µg/ml C1q
[2] = target: human C1q (Quidel, San Diego, Calif.) (human) (UniProt P02745); assay: cell-based or functional assay
[3] = target: CD20 antigen on WIL2-S cells (UniProt P11836); assay: flow cytometry on WIL2-S cells expressing CD20
Chain of CD20 antigen on WIL2-S cells (P11836 whole entry): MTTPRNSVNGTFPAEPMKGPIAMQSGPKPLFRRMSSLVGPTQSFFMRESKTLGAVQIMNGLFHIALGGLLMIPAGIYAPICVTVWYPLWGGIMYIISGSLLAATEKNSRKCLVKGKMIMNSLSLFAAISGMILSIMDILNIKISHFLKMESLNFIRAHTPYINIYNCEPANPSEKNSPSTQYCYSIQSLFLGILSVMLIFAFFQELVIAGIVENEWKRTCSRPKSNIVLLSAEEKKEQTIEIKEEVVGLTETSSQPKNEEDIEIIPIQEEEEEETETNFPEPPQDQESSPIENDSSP

[4] = target: human C1q (Quidel, San Diego, Calif.) (human) (UniProt P02745); assay: C1q binding ELISA, antibody coated on plate, 2 µg/ml C1q; remark: listed apart in the source

Chain of human C1q (Quidel, San Diego, Calif.) (human) (P02745 23-245 limits assumed, chain 1 of 3): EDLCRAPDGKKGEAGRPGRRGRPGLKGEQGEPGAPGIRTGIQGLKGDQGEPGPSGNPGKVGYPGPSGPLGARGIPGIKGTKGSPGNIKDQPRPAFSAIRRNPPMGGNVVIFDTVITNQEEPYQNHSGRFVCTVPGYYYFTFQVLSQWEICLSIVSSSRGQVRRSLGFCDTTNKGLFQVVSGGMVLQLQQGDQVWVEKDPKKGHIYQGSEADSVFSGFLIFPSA
Chain of human C1q (Quidel, San Diego, Calif.) (human) (P02746 28-253 limits assumed, chain 2 of 3, further chain): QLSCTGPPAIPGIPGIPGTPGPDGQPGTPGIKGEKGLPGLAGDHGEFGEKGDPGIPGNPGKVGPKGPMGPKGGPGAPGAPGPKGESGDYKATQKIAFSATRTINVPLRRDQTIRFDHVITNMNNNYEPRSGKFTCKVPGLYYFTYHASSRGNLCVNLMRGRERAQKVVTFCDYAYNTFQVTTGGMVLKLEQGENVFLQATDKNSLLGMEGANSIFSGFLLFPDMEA
Chain of human C1q (Quidel, San Diego, Calif.) (human) (P02747 29-245 limits assumed, chain 3 of 3, further chain): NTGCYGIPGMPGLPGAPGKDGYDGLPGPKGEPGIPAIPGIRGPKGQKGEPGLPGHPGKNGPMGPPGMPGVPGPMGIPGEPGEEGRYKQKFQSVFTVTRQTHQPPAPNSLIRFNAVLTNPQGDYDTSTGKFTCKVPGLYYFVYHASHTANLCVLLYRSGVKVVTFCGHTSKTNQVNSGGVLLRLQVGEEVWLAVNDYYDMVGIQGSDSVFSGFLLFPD

Substance: C2B8 mutant E318A (antibody)
CDC, percentage of the wild type [2]: 108%
EC50 as percentage of the wild type [3]: 89%
percent decrease in binding against wild type C2B8 [1]: 30%

Substance: C2B8 mutant E333G (antibody)
EC50 [1]: 1.14 µg/mL

Substance: C2B8 double mutant K326A-E333A (antibody)
CDC, fold better than wild type C2B8 [2]: > 2 fold
fold better binding than wild type C2B8 [1]: > 3 fold

Substance: C2B8 mutant K326M (antibody)
EC50 [1]: 0.67 µg/mL
fold increase in binding against wild type [4]: > 2 fold

Substance: C2B8 mutant E333Q (antibody)
EC50 [1]: 1.52 µg/mL

Substance: C2B8 mutant K326E (antibody)
EC50 [1]: 1.08 µg/mL
fold increase in binding against wild type [4]: > 2 fold

Substance: C2B8 mutant K334A (antibody)
EC50 [1]: 1.07 µg/mL
percent increase in binding against wild type [1]: > 30%

Substance: C2B8 mutant E333S (antibody)
EC50 [1]: 0.81 µg/mL
fold increase in binding against wild type [1]: 2 fold

Substance: C2B8 double mutant K326M-E333S (antibody)
CDC, fold better than wild type C2B8 [2]: > 2 fold
fold better binding than wild type C2B8 [1]: > 3 fold

Substance: C2B8 mutant K326W (antibody)
EC50 [1]: 0.47 µg/mL
fold increase in binding against wild type [1]: 5 fold
fold increase in binding against wild type [4]: > 2 fold

Substance: C2B8 mutant E333A (antibody)
EC50 [1]: 0.98 µg/mL
percent increase in binding against wild type [1]: 30%

Substance: C2B8 mutant K326G (antibody)
EC50 [1]: 0.95 µg/mL

Substance: C2B8 mutant K326D (antibody)
EC50 [1]: 0.76 µg/mL
fold increase in binding against wild type [4]: > 2 fold

Substance: C2B8 mutant K326A (antibody)
EC50 [1]: 1.03 µg/mL
percent increase in binding against wild type [1]: 30%

Now from value to substance:

EC50 [1]: 1.22 µg/mL
Substance: C2B8 mutant E333D (antibody)

EC50 [1]: 1.18 µg/mL
Substance: C2B8 mutant E333V (antibody)

EC50 as percentage of the wild type [3]: 103%
fold lower binding than wild type C2B8 [1]: 60 fold
Substance: C2B8 mutant P331A (antibody)

percent increase in binding against wild type [1]: 50%
Substance: C2B8 mutant with A327 in the human IgG1 constant region changed to glycine (antibody)

EC50 [1]: 1.3 µg/mL
Substance: C2B8 mutant K326V (antibody)

CDC, percentage of the wild type [2]: 108%
EC50 as percentage of the wild type [3]: 102%
Substance: C2B8 mutant K320A (antibody)

EC50 as percentage of the wild type [3]: 112%
Substance: C2B8 mutant P329A (antibody)
